Target: Arp3 (subunit of the human Arp2/3 complex, activated conformation at the branch) (human, UniProt P61158 1-418)
Assay: cryo-EM structure; actin branches reconstituted from Arp2/3, VVCA, SPIN90, actin and capping protein, then 1.9 uM full-length cortactin and 10 uM phalloidin; 20 mM HEPES pH 7.5, 50 mM KCl, 1 mM EGTA, 1 mM MgCl2, 0.2 mM ATP, 1 mM DTT; room temperature; overall resolution about 3.3 Å
Conditions: both partners purified

B1: Full-length mouse cortactin (natural protein)
chain: not shown
notes: cortactin, mouse, residues 1-546, UniProt Q60598; only residues 21-79 (NtA) and 80-116 (first central repeat) were built in the model; also called full-length cortactin
binding result: binds
